Assay results taken from the supplement of paper PMC6757056.
± gives the standard deviation of the averaged measurements.

B1: library; a variant is named by its letters at N, in order (parent)
chain: GCUGUCACCGGUGCUUGGUACGUUAUAUUCAGCCGGUCUGAUGAGUCUNNNNNNAGACGAAACAGC

Experiments:
(6R,S)-folinic acid [1] = variants of: B1; assay: normalized RNA/DNA level without ligand (relative to sTRSVctl = 100) (log10 (% of sTRSVctl)); HEK293T overexpressing SLC46A1; higher = less ribozyme self-cleavage, higher mRNA level; conditions: without (6R,S)-folinic acid; ligand present: no
In short: (§1)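 Library plasmids encoding reporter-linked ribozyme switches (mCherry, or eGFP for some folinic acid experiments) were transfected into HEK293T at 4 µg per 6-well well. Ligand, when used, was added 1 h before transfection. Total RNA was extracted with EDTA 72 h later, then reverse-transcribed, amplified, barcoded and sequenced. RNA level was RNA reads over DNA reads, divided by a spiked-in non-cleaving control (or the top 25 sequences), ×100, log10; only sequences with ≥100 DNA reads were kept.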

(6R,S)-folinic acid [2] = variants of: B1; assay: normalized RNA/DNA level with ligand (relative to sTRSVctl = 100) (log10 (% of sTRSVctl)); HEK293T overexpressing SLC46A1; ligand concentration (+) RNA-Seq: 6 mM; higher = less ribozyme self-cleavage, higher mRNA level; conditions: with (6R,S)-folinic acid; ligand present: yes
In short: as §1

Variant: GGCUCU
- normalized RNA/DNA level without ligand (log10) ((6R,S)-folinic acid [1]): 2.087 ± 0.0098
- normalized RNA/DNA level with ligand (log10) ((6R,S)-folinic acid [2]): 2.05 ± 0.038

Variant: UCCCUG
- normalized RNA/DNA level without ligand (log10) ((6R,S)-folinic acid [1]): 1.919 ± 0.013
- normalized RNA/DNA level with ligand (log10) ((6R,S)-folinic acid [2]): 2.03 ± 0.039

Variant: AAGUUC
- normalized RNA/DNA level without ligand (log10) ((6R,S)-folinic acid [1]): 2.031 ± 0.017
- normalized RNA/DNA level with ligand (log10) ((6R,S)-folinic acid [2]): 2.02 ± 0.054

Variant: UGUCUC
- normalized RNA/DNA level without ligand (log10) ((6R,S)-folinic acid [1]): 2.06 ± 0.022
- normalized RNA/DNA level with ligand (log10) ((6R,S)-folinic acid [2]): 2.052 ± 0.02

Variant: UCCAUU
- normalized RNA/DNA level without ligand (log10) ((6R,S)-folinic acid [1]): 2.033 ± 0.011
- normalized RNA/DNA level with ligand (log10) ((6R,S)-folinic acid [2]): 2.006 ± 0.006

Variant: GUUGUC
- normalized RNA/DNA level without ligand (log10) ((6R,S)-folinic acid [1]): 2.02 ± 0.025
- normalized RNA/DNA level with ligand (log10) ((6R,S)-folinic acid [2]): 2.021 ± 0.019

Variant: AGACAC
- normalized RNA/DNA level without ligand (log10) ((6R,S)-folinic acid [1]): 2.0193 ± 0.00083
- normalized RNA/DNA level with ligand (log10) ((6R,S)-folinic acid [2]): 2.01 ± 0.028

Variant: CGCCUU
- normalized RNA/DNA level without ligand (log10) ((6R,S)-folinic acid [1]): 2.0227 ± 0.00028
- normalized RNA/DNA level with ligand (log10) ((6R,S)-folinic acid [2]): 2.007 ± 0.018

Variant: CGCCUA
- normalized RNA/DNA level without ligand (log10) ((6R,S)-folinic acid [1]): 2.05 ± 0.0096
- normalized RNA/DNA level with ligand (log10) ((6R,S)-folinic acid [2]): 2.05 ± 0.061

Variant: CGCUCA
- normalized RNA/DNA level without ligand (log10) ((6R,S)-folinic acid [1]): 2.05 ± 0.022
- normalized RNA/DNA level with ligand (log10) ((6R,S)-folinic acid [2]): 2.038 ± 0.008

Variant: CUUCCA
- normalized RNA/DNA level without ligand (log10) ((6R,S)-folinic acid [1]): 2.023 ± 0.014
- normalized RNA/DNA level with ligand (log10) ((6R,S)-folinic acid [2]): 2.02 ± 0.037

Variant: GUGACU
- normalized RNA/DNA level without ligand (log10) ((6R,S)-folinic acid [1]): 2.029 ± 0.0025
- normalized RNA/DNA level with ligand (log10) ((6R,S)-folinic acid [2]): 2.04 ± 0.041

Variant: CUAGGG
- normalized RNA/DNA level without ligand (log10) ((6R,S)-folinic acid [1]): 1.882 ± 0.017
- normalized RNA/DNA level with ligand (log10) ((6R,S)-folinic acid [2]): 2.02 ± 0.028

Variant: UCGAAC
- normalized RNA/DNA level without ligand (log10) ((6R,S)-folinic acid [1]): 2.027 ± 0.01
- normalized RNA/DNA level with ligand (log10) ((6R,S)-folinic acid [2]): 2.006 ± 0.0085

Variant: CGGCGC
- normalized RNA/DNA level without ligand (log10) ((6R,S)-folinic acid [1]): 2.0778 ± 0.0006
- normalized RNA/DNA level with ligand (log10) ((6R,S)-folinic acid [2]): 2.05 ± 0.029

Variant: UGGGAC
- normalized RNA/DNA level without ligand (log10) ((6R,S)-folinic acid [1]): 1.99 ± 0.03
- normalized RNA/DNA level with ligand (log10) ((6R,S)-folinic acid [2]): 2.015 ± 0.0073

Variant: GUAUUC
- normalized RNA/DNA level without ligand (log10) ((6R,S)-folinic acid [1]): 2.03 ± 0.025
- normalized RNA/DNA level with ligand (log10) ((6R,S)-folinic acid [2]): 2.021 ± 0.019

Variant: GCUCUA
- normalized RNA/DNA level without ligand (log10) ((6R,S)-folinic acid [1]): 2.01 ± 0.024
- normalized RNA/DNA level with ligand (log10) ((6R,S)-folinic acid [2]): 2.03 ± 0.018

Variant: GUCGCG
- normalized RNA/DNA level without ligand (log10) ((6R,S)-folinic acid [1]): 1.96 ± 0.026
- normalized RNA/DNA level with ligand (log10) ((6R,S)-folinic acid [2]): 1.996 ± 0.0077

Variant: AUGUGC
- normalized RNA/DNA level without ligand (log10) ((6R,S)-folinic acid [1]): 1.97 ± 0.021
- normalized RNA/DNA level with ligand (log10) ((6R,S)-folinic acid [2]): 1.981 ± 0.018

Variant: CUUACA
- normalized RNA/DNA level without ligand (log10) ((6R,S)-folinic acid [1]): 2.004 ± 0.01
- normalized RNA/DNA level with ligand (log10) ((6R,S)-folinic acid [2]): 2 ± 0.022

Variant: AUACGC
- normalized RNA/DNA level without ligand (log10) ((6R,S)-folinic acid [1]): 2.015 ± 0.018
- normalized RNA/DNA level with ligand (log10) ((6R,S)-folinic acid [2]): 1.998 ± 0.013

Variant: AGCCCG
- normalized RNA/DNA level without ligand (log10) ((6R,S)-folinic acid [1]): 2.02 ± 0.0096
- normalized RNA/DNA level with ligand (log10) ((6R,S)-folinic acid [2]): 2.02 ± 0.0065

Variant: CUUUUG
- normalized RNA/DNA level without ligand (log10) ((6R,S)-folinic acid [1]): 2.0401 ± 0.001
- normalized RNA/DNA level with ligand (log10) ((6R,S)-folinic acid [2]): 2.04 ± 0.029

Variant: CGUGGU
- normalized RNA/DNA level without ligand (log10) ((6R,S)-folinic acid [1]): 1.998 ± 0.0064
- normalized RNA/DNA level with ligand (log10) ((6R,S)-folinic acid [2]): 1.99 ± 0.029

Variant: GAUUCG
- normalized RNA/DNA level without ligand (log10) ((6R,S)-folinic acid [1]): 1.978 ± 0.0021
- normalized RNA/DNA level with ligand (log10) ((6R,S)-folinic acid [2]): 2.01 ± 0.042

Variant: CGCCCU
- normalized RNA/DNA level without ligand (log10) ((6R,S)-folinic acid [1]): 2.09 ± 0.04
- normalized RNA/DNA level with ligand (log10) ((6R,S)-folinic acid [2]): 2.092 ± 0.017

Variant: UCACAA
- normalized RNA/DNA level without ligand (log10) ((6R,S)-folinic acid [1]): 1.982 ± 0.017
- normalized RNA/DNA level with ligand (log10) ((6R,S)-folinic acid [2]): 1.98 ± 0.025

Variant: GACCCC
- normalized RNA/DNA level without ligand (log10) ((6R,S)-folinic acid [1]): 2.017 ± 0.0088
- normalized RNA/DNA level with ligand (log10) ((6R,S)-folinic acid [2]): 2 ± 0.045
